# Earlier results as cited in article PMC5648805.
# What was measured:
# [1] = target: Calmodulin (Homo sapiens) (UniProt P0DP23); assay: ITC
# Orai1 (Homo sapiens) = Orai1 (Homo sapiens) (UniProt Q96D31)
# Sequence of UniProt Q96D31 (Q96D31 whole entry): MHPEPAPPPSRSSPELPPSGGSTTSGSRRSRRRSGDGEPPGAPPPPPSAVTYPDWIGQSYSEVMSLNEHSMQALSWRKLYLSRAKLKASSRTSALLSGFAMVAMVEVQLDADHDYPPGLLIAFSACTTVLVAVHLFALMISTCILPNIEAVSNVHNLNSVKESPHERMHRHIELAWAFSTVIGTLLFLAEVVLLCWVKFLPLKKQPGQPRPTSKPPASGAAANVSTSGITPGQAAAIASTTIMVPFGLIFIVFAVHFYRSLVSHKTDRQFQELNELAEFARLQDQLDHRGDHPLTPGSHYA
Kd [1] [µM],Kd (Orai1 (Homo sapiens)) [µM],Substance
1,,STIM1 polybasic peptide polybasic region (from UniProt Q13586)
,200,STIM1 SOAR (from UniProt Q13586)
